Data taken from patent US20160264664A1 (Ablynx, published 2016).
Numbering of substitutions follows the chain as printed.

T1: mouse P2X7 (mouse, UniProt Q9Z1M0 1-595)
T1 construct: on transfected CHO or Hek293 cells, or endogenous on Yac-1 cells; also called mP2X7; mouse purinoceptor P2X7
T1 sequence: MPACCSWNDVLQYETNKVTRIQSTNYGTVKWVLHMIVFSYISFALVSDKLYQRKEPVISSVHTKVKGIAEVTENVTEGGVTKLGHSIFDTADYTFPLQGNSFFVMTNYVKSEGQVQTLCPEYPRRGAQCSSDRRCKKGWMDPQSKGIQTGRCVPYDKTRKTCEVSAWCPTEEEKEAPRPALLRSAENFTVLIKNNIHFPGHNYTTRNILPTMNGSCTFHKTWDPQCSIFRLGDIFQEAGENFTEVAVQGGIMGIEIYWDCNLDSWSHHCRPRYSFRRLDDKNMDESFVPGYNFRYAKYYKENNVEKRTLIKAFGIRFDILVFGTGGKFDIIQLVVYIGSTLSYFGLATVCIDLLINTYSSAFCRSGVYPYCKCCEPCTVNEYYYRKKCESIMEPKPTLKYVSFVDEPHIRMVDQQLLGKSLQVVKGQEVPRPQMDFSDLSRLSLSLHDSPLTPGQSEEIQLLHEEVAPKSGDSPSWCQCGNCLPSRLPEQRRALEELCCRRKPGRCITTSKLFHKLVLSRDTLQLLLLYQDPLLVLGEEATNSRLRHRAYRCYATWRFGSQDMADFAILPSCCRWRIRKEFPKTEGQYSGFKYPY

T2: human P2X4 (human, UniProt Q99571 1-388)
T2 construct: whole, on cells; also called hP2X4
T2 sequence (looked up): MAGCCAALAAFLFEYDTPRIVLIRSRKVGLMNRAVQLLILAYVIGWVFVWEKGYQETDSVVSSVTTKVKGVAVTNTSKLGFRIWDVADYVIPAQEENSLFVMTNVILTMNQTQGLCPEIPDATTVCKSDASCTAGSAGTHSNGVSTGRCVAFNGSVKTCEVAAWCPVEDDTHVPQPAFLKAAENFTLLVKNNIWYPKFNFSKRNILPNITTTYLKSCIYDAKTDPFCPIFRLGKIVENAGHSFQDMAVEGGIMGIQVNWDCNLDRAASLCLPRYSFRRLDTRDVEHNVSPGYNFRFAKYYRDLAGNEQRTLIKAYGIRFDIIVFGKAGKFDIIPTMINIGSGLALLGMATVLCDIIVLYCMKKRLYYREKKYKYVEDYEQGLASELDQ

T3: human P2X7 (human, UniProt Q99572 1-595)
T3 construct: on transfected Hek293 cells; also called hP2X7
T3 sequence: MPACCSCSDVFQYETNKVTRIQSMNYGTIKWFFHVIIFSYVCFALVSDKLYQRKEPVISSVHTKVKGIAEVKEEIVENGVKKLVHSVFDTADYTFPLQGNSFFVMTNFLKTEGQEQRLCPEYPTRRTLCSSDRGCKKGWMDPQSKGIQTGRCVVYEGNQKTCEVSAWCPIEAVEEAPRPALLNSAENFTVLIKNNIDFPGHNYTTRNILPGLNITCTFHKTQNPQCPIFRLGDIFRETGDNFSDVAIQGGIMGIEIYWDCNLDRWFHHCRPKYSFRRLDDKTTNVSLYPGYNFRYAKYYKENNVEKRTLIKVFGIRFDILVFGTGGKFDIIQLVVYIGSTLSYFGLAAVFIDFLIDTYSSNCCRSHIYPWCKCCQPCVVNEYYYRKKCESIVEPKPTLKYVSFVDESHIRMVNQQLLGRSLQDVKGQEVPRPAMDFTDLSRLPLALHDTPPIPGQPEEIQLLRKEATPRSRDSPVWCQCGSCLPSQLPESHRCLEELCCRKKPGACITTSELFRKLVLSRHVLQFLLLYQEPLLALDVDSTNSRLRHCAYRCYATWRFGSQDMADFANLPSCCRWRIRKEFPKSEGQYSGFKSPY

B1: P2X7PMP13G4 (VHH)
VHH: EVQLVESGGGLVQAGGSLRLSCAASDRTFGSSTMGWFRQPPGKNREFVATIAWSATTTHYADAVKGRFTVSRDNALNTVYLQMNSLKPEDTAVYYCAATLTWLGIHEYEYNTWGQGTQVTVSS
notes: family 21; on phage or c-myc/His6-tagged in assays
B2: P2X7PMP7D6 (VHH)
VHH: EVQLVESGGGLVQAGGSLRLSCAASGRTFGSSPVGWFRQAPGKERDFVATISWNGVDTHYLDSVKGRFTISRDNAKNTVHLQMHILKPEDTALYYCAASTSGSVYLPYRVYQYDSWGQGTQVTVSS
notes: family 8; on phage or c-myc/His6-tagged in assays
B3: P2X7PMP13G5 (VHH)
VHH: EVQLVESGGGLVQAGGSLRLSCAASDRTFGSSAMGWFRQAPGKDRDFVAAISWSGSSTHYADSVKGRFTISRDNAKNTMYLQMNSLKPADTAVYTCAASRRAYLPAKVGEYDFWGQGTQVTVSS
notes: family 18; on phage or c-myc/His6-tagged in assays
B4: P2X7PMP13B5 (VHH)
VHH: EVQLVESGGGLVQAGDSLRLSCAASGRTFSSYAMGWFRQAPGKEREFVAAISLSGSMTYYADSMKGRFTISRDNAKNTVYLQMNSLKPEDTAVYYCAAEELGDGLGYLAYRYDYWGQGTQVTVSS
notes: family 19; on phage or c-myc/His6-tagged in assays
B5: P2X7PMP7B4 (VHH)
VHH: EVQLVESGGGLVQAGGSLRLSCAASGRNFGSYTMAWFRQAPGKGREFVSTINWSGGDTDYADSVKGRFTISRDNAKNTVYLQMDSLKPEDTAVYYCAAGLEYMSTIRYTYEYWGQGTQVTVSS
notes: family 10; on phage or c-myc/His6-tagged in assays
B6: P2X7PMP4B4 (VHH)
VHH: EVQLVESGGGLVQAGGSLRLSCAASGRTVSDYGMGWFRQAPGKLREFVASINWSGIYTRYIDSVEGRFTISRDNTKNTLYLQMNNLKAEDTAVYYCAYFLGPNWYSNYGRPSSYDFYGQGTQVTVSS
notes: family 4; on phage or c-myc/His6-tagged in assays
B7: P2X7PMP7A4 (VHH)
VHH: EVQLVESGGGLVQAGGSLRVSCAASARTGSYSMGWFRQAPGKEREFVSTISWNGADTVYADSVKGRFTISRDNAKDTVYLQMNSLKPEDTAVYYCAGSITSYVSTWQHDYEYWGQGTQVTVSS
notes: family 9; on phage or c-myc/His6-tagged in assays
B8: P2X7PMP2A6 (VHH)
VHH: EVQLVESGGDVVQAGGSLRLSCLASGFTFDDYAIGWFRQAPGKEREGISCISSTGNVFYADSVKGRFTISSDKEKNTLYLQMNSLEPEDTAVYHCAAGHFTVDSGKVLLRTDISSWGQGTQVTVSS
notes: family 1; on phage or c-myc/His6-tagged in assays
B9: P2X7PMP7G5 (VHH)
VHH: EVQLVESGGGLVQSGGSLRLSCAGSGFSYYIIGWFRQAPGKEREEVSCIRVTDGSTYYTNSVKGRFTMSRDNAENTVYLQMNSLKPEDTAVYSCATECQRWAYPNRIGARGQGTQVTVSS
notes: family 12; on phage or c-myc/His6-tagged in assays
B10: P2X7PMP8C7 (VHH)
VHH: EMQLVESGGGLVQAGGSLRLSCAASGRTFSSLAMGWLRQAPGKEREFVSGISRGGTSTYYADSVKGRFTISRDNAKNTMYLQMNSLKPEDTAVYYCAGSPVLSIVLDTRGLEYWGQGTQVTVSS
notes: family 7; on phage or c-myc/His6-tagged in assays
B11: P2X7PMP8E7 (VHH)
VHH: B10 VHH with M2V
notes: as for B10
B12: P2X7PMP13G9 (VHH)
VHH: EVQLVESGGGLVQAGGSLRLSCVASGRTFSILTMGWFRQAPGKEREFVAAISGIGAIHYADSVKGRFTLSRDNARNTVSLHMNSLKPEDTAVYYCAAKANYESPSRETSYAYWGQGTQVTVSS
notes: family 23; on phage or c-myc/His6-tagged in assays
B13: P2X7PMP13B8 (VHH)
VHH: EVQLVESGGGLVQPGGSLRLSCAASGLTLTYYNIGWFRQAPGKEREGVSCIDWTDGTTFYADSVKGRFTISTDNAKNTVYLHLNSLEPEDTAVYYCAAGWGRVMTVQHMCADRSLFTSWGQGTQVTVSS
notes: family 13; on phage or c-myc/His6-tagged in assays
B14: P2X7PMP19C2 (VHH)
VHH: EVQLVKSGGGLVQAGGSLRLSCAASPGTFSSFNMGWFRQTPGKEREFVAATSWSDISTYYADSVKGRFTISRDNAKNTVTLEMNSLKPEDTAVYYCAAGYYRGGYLGYRLTLEGSYDVWGQGTQVTVSS
notes: family 15; on phage or c-myc/His6-tagged in assays
B15: P2X7PMP19E3 (VHH)
VHH: B14 VHH with V2M, K6E
notes: as for B14
B16: P2X7PMP14F6 (VHH)
VHH: EVQLVESGGGLVQAGGPLRLSCAASGSFFRVNNMAWYRQAPGKQRELVADITRGDRTNYADSVNGRFTISRDNVRNTVYLQMNGLKPEDTAVYYCYARIELGVLEPRDYWGQGTQVTVSS
notes: family 5, 2; on phage or c-myc/His6-tagged in assays
B17: P2X7PMP14G11 (VHH)
VHH: B16 VHH with Q13K, A14P, P17S, A40G, R98T
notes: family 5, 3; on phage or c-myc/His6-tagged in assays
B18: P2X7PMP14F10 (VHH)
VHH: B16 VHH with P17S, S21L, Y94S, V103I
notes: as for B16
B19: P2X7PMP14G4 (VHH)
VHH: B16 VHH with P17S, R19G, S27N, N33T, S62T, V92A
notes: as for B16

target: T1, mouse P2X7; experiment: phage ELISA on fixed mP2X7-CHO vs untransfected CHO cells;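 further: phage culture supernatant diluted 10-fold, applied for 1 h to paraformaldehyde-fixed, BSA-blocked cells in 96-well plates, with bound phage read via HRP-linked anti-M13 antibody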
Procedure: (§1) Sub-confluent cells were rinsed with PBS and fixed using 4% paraformaldehyde in PBS for 10 minutes at RT. Fixed cells were washed three times with PBS, and blocked with 2% BSA in PBS for 2 hours. Following blocking, 10-fold diluted culture supernatant containing phage was added and incubated for 1 hour. Cell-bound phage was detected via mouse anti-M13-HRP-conjugate (GE Healthcare, Cat nr. E2886). Rat mAb Hano43 was used as positive control.

Binder | Fold Cho P2X7/wt (phage ELISA) [fold]
B1 | 56
B2 | 18
B3 | 35
B4 | 28
B5 | 23
B6 | 19
B7 | 32
B8 | 8
B9 | 30
B10 | 21
B11 | 16
B12 | 17
B13 | 24

target: T1, mouse P2X7; experiment: cell-based or functional assay

Binder | ATP IC50 by 2 uM NB (head prints 'mM'; ligand titration at fixed Nanobody, CD62L shedding, Yac-1 cells) [mM] | IC50 (nM) against 20 uM NAD (CD62L shedding, Yac-1 cells) [nM] | IC50 (nM) against 100 uM ATP (CD62L shedding, Yac-1 cells) [nM]
B4 | 0.2 | 3650 | 436
B6 | 0.047 | – | –
B10 | – | 4000 | 386
B11 | – | 4000 | 576
B12 | 0.469 | 136 | 35

target: T2, human P2X4; experiment: flow cytometry, Nanobody pre-incubated with anti-Myc-FITC

Binder | binding result
B1 | no binding (tested: 147 nM)
B2 | no binding (tested: 147 nM)
B3 | no binding (tested: 147 nM)
B4 | no binding (tested: 147 nM)
B5 | no binding (tested: 147 nM)
B6 | no binding (tested: 147 nM)
B7 | no binding (tested: 147 nM)
B8 | no binding (tested: 147 nM)
B9 | no binding (tested: 147 nM)
B10 | no binding (tested: 147 nM)
B11 | no binding (tested: 147 nM)
B12 | no binding (tested: 147 nM)
B13 | no binding (tested: 147 nM)

target: T3, human P2X7; experiment: as above

Binder | binding result
B1 | no binding (tested: 147 nM)
B2 | no binding (tested: 147 nM)
B3 | no binding (tested: 147 nM)
B4 | no binding (tested: 147 nM)
B5 | no binding (tested: 147 nM)
B6 | no binding (tested: 147 nM)
B7 | no binding (tested: 147 nM)
B8 | no binding (tested: 147 nM)
B9 | no binding (tested: 147 nM)
B10 | no binding (tested: 147 nM)
B11 | no binding (tested: 147 nM)
B12 | no binding (tested: 147 nM)
B13 | no binding (tested: 147 nM)

target: T1, mouse P2X7; experiment: flow cytometry, periplasmic extract pre-incubated with anti-myc-FITC, on mP2X7-Hek293 cells;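 further: periplasmic extract diluted 10-fold and premixed 45 min at 4 °C with FITC anti-myc antibody, giving pseudo-bivalent Nanobodies, before binding to the cells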
Procedure: Ten-fold diluted PE were pre-incubation with 0.5 μg anti-myc FITC-conjugated antibodies (AbD Serotec, cat no. MCA2200F) (creating pseudo-bivalent Nanobodies in order to increase binding strength) in 0.1 ml PBS/10% FCS for 45 minutes at 4° C. […] Alternatively, sequential staining of 10-fold diluted PE with anti-myc FITC-conjugated antibodies was done after incubation with the cells.

Binder | MFI FACS (pre-Myc incubation) [MFI]
B14 | 64
B15 | 55

target: T1, mouse P2X7; experiment: phage ELISA, mP2X7-CHO vs control CHO cells
Procedure: as §1

Binder | absorption ratio (ELISA) [ratio]
B14 | 18
B15 | 8
B16 | 15
B17 | 30
B18 | 19
B19 | 34
